The Kd is the equilibrium constant for the complex coming apart. For orientation: koff means the rate constant with which the complex falls apart. The term kon denotes a measure of how fast the partners come together.

For test [1], the target named is recombinant anthrax protective antigen (rPA) (Bacillus anthracis, UniProt P13423 30-764). Kind of test: SPR, Biacore 2000, rPA on a CM5 chip, MAb in solution. (In general: Surface plasmon resonance follows binding to a sensor surface in real time, without labels.)
Chain of recombinant anthrax protective antigen (rPA) (P13423 30-764): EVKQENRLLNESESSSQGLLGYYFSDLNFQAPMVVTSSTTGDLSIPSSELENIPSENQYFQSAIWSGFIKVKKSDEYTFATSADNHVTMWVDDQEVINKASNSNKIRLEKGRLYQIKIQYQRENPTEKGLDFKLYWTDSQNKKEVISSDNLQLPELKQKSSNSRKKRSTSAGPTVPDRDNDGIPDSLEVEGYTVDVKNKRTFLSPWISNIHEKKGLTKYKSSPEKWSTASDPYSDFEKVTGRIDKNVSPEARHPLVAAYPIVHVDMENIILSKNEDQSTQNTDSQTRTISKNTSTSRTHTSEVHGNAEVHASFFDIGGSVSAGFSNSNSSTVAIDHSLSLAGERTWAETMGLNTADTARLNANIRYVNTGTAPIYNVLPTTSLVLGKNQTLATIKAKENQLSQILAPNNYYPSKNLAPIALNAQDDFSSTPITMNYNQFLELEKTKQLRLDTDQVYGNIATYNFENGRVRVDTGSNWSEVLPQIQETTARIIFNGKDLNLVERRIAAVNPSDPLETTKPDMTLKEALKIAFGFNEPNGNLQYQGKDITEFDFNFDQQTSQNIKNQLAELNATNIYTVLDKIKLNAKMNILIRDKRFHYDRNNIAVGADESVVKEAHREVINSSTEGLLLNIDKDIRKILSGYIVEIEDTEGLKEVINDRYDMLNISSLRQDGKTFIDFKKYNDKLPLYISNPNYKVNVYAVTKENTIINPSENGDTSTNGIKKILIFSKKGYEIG
The target in test [2] is T1, recombinant lethal factor (rLF) (Bacillus anthracis, UniProt P15917 34-809).
T1 sequence: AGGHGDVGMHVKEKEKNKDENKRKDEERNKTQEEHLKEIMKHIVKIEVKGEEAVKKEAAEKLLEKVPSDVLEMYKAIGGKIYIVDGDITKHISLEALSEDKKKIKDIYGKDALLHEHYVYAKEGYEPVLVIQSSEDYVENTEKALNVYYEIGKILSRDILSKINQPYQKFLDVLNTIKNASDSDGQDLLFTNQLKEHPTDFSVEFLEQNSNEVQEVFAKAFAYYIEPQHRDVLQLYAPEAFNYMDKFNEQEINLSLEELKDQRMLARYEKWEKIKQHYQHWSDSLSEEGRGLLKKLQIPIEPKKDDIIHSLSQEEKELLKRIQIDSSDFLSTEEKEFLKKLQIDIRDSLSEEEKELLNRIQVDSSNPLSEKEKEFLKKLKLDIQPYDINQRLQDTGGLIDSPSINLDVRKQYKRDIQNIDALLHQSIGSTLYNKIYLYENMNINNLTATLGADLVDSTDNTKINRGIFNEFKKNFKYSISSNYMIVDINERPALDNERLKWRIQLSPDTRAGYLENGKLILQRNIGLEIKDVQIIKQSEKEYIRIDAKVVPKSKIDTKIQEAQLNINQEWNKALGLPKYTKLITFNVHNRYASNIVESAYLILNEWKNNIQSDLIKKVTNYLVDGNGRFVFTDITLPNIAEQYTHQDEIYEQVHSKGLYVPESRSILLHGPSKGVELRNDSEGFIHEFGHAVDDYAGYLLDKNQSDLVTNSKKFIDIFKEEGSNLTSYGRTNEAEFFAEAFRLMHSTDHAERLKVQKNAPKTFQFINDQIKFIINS
Kind of test: Western immunoblot, 2 µg denatured protein.

The target in test [3] is bovine serum albumin (BSA) (bovine, UniProt P02769 25-607). Kind of test: endpoint ELISA, antigen coated at 100 ng/well.
Chain of bovine serum albumin (BSA) (P02769 25-607 limits assumed): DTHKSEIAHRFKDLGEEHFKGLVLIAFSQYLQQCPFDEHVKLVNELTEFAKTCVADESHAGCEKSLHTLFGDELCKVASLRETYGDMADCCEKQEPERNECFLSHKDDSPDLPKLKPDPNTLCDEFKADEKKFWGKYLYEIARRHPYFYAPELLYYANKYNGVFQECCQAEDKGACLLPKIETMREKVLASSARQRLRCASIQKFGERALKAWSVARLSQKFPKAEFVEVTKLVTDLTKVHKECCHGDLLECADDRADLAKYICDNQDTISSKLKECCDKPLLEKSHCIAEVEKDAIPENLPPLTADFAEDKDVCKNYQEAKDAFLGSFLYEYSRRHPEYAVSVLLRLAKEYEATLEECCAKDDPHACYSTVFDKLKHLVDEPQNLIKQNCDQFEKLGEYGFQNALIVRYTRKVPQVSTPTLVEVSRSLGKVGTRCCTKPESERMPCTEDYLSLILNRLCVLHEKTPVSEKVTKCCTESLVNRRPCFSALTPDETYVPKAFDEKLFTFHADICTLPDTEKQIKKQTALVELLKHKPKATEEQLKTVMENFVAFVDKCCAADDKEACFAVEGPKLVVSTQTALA
For test [4], the target named is chymotrypsin digested rPA (47 and 37 kDa fragments) (Bacillus anthracis, UniProt P13423 30-343; P13423 344-764). Kind of test: Western immunoblot of chymotrypsin digested rPA. In general terms: Immunoblotting shows a protein as a band on a membrane.
Chain of chymotrypsin digested rPA (47 and 37 kDa fragments) (P13423 30-343 limits assumed, chain 1 of 2): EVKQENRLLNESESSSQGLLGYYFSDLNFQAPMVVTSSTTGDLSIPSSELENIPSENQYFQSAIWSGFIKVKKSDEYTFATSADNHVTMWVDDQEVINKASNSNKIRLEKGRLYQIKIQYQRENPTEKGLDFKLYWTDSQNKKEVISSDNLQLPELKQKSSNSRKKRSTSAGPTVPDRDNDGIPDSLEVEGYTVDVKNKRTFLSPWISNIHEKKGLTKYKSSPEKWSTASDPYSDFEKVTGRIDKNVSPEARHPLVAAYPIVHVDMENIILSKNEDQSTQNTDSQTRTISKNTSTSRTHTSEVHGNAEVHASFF
Chain of chymotrypsin digested rPA (47 and 37 kDa fragments) (P13423 344-764 limits assumed, chain 2 of 2): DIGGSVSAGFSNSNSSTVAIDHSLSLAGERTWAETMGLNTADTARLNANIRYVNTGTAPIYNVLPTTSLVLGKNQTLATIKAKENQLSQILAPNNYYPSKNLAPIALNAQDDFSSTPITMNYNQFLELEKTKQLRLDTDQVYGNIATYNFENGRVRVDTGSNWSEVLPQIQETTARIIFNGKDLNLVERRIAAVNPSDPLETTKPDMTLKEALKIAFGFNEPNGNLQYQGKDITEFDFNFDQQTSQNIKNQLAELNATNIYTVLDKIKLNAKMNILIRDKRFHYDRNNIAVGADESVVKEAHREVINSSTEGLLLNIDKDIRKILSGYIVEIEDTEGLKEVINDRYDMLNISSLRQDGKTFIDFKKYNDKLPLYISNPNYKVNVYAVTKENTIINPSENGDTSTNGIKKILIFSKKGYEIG

B1: F20G76 (antibody, V domains shown)
VH: EVQLEESGPELVKPGASVKVSCKASGYSFTDYNMYWVKQSHGTSLEWIGVIDPNNGVTSYNQKFKDKATLTADKSSSTAFMHLNSLTSEDSAVYYCSRGGLDYWGQGTTLTVSS
VL: ELVMTQSPLSLPVSLGDQASISCRSSQSIIHSNGDTFLEWFLQKPGQSPKLLIYKVSNRFSGVPDRFSGSGSGTDFTLKISRVEAEDLGVYYCFQGSHVPLTFGAGTKLELKR
For B1, in test [1], the dissociation constant (Kd) amounted to 18.5 nM, the koff was 6.8e-05 s⁻¹ and the kon was 4000 M⁻¹ s⁻¹. Also, the binding result in test [2] was “no binding”. The binding result in test [3] is “no binding”. The binding result in test [4] is “no binding”.

B2: F20G77 (antibody)
chain 1: EVQLEESGPELVSPGVSVKISCEGSGYTFTDYAMHWVKQSHARGLEWIGVIGSYSGNAHHNLNFKDKATMTVDKSSSTAYMELARLTSDDSAIYYCAY
chain 2: ELVMTQSPLSLPVSLGDQASISCRSSQSIIHSNGDTFLEWFLQKPGQSPKLLIYKVSNRFSGVPDRFSGSGSGTDFTLKISRVEAEDLGVYYCFQGSHVPLTFGAGTKLELK
Regarding B2, in test [1], the dissociation constant Kd amounted to 0.46 nM, the koff stood at 1.4e-06 s⁻¹ and the association rate constant (kon) turned out to be 3100 M⁻¹ s⁻¹.

The values are drawn from US20160002321A1 (HER MAJESTY THE QUEEN IN RIGHT OF CANADA AS REPRESENTED BY …, published 2016).
